* marks the point of attachment. CONH‑phenylbutyl = C-terminal alpha-ketoamide warhead with phenylbutyl on the amide nitrogen, O=C(NCCCCc1ccccc1)*; B(OH)2 = C-terminal boronate warhead, OB(O)*
How the values were obtained:
[1] = biological target: T1, E. coli GlpG consisting of residues 87-276 (ΔN-GlpG) (E. coli, UniProt P09391 87-276); assay: crystal structure
T1 sequence (looked up): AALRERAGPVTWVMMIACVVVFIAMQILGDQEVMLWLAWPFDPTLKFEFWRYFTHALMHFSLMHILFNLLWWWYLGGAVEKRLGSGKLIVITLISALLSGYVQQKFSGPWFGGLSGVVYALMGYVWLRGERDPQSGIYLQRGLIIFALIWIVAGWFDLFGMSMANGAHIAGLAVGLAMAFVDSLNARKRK

[2] = biological target: P. falciparum rhomboid protease PfROM4 (HA-tagged) (P. falciparum); assay: cell-based or functional assay

## Ac-RVWHA-{CONH‑phenylbutyl} [rhomboid-inhibiting ketoamide (RiKa), Ac-RVWHA-CONH-phenylbutyl]
[1]
  binding result: binds
[2]
  EC50 of inhibition of EBA175 cleavage by PfROM4 in HEK293T cells: 55 nM

B1: rhomboid-inhibiting boronate (RiBn), Ac-KRFRSMQYSA-B(OH)2 (peptide)
peptide: Ac-KRFRSMQYSA-{B(OH)2}
SMILES: CSCC[C@H](NC(=O)[C@H](CO)NC(=O)[C@H](CCCNC(=N)N)NC(=O)[C@H](Cc1ccccc1)NC(=O)[C@H](CCCNC(=N)N)NC(=O)[C@H](CCCCN)NC(C)=O)C(=O)N[C@@H](CCC(N)=O)C(=O)N[C@@H](Cc1ccc(O)cc1)C(=O)N[C@@H](CO)C(=O)N[C@@H](C)C(=O)B(O)O
[1]
  binding result: binds

Source: PMC7680425 (Cell chemical biology, 2020)
